Results taken from patent US20130347134A1 (published 2013).

Columns and labels:
[1] = target: T1, human platelet glycoprotein Ib alpha (GPIb α) on human platelets (human, UniProt P07359 17-652); test: human whole blood over immobilized protein, parallel-plate flow chamber, 1600 s^-1
T1 construct: whole, on cells; Native receptor on washed platelets or whole blood; also called GPIb alpha; hGPIb-α
Procedure: (§1) Ex vivo platelet adhesion studies. Experiments were performed in a parallel-plate flow chamber as previously described (Offermanns, S., et al., 2006). […] Subsequently, the plate was washed and non-specific interactions blocked by the addition of TBS containing 3% BSA, pH 7.4 (1 hour, 37° C.). Human or murine plasma obtained from heparinized whole blood was added and the plates placed at 37° C. for an additional 2 hours. […] The number of platelets attached per unit area (0.07 mm²) and translocation velocities were determined by off-line analysis (Image-Pro Plus, Media Cybernetics). For GPIb α inhibition studies, the function-blocking mAb 6D1 (20 μg/ml) or mAb SZ2 (20 μg/ml; Beckman Coulter, Brea, Calif.) was added to anticoagulated human blood for 30 minutes prior to use. Experiments were performed in triplicate on two separate days. An ELISA was used to ensure equivalent coating concentration of plasma and recombinant proteins (Denis, C. et al., 1998).

[2] = target: T2, murine platelet glycoprotein Ib alpha (GPIb α) on mouse platelets (mouse, UniProt O35930 17-734); test: mouse whole blood perfused 4 min over surface-immobilized recombinant VWF-A1, 1600 s-1
T2 construct: whole, on cells; Native receptor on mouse platelets or whole blood; also called murine GPIb α; mGPIb-α
T2 sequence (looked up): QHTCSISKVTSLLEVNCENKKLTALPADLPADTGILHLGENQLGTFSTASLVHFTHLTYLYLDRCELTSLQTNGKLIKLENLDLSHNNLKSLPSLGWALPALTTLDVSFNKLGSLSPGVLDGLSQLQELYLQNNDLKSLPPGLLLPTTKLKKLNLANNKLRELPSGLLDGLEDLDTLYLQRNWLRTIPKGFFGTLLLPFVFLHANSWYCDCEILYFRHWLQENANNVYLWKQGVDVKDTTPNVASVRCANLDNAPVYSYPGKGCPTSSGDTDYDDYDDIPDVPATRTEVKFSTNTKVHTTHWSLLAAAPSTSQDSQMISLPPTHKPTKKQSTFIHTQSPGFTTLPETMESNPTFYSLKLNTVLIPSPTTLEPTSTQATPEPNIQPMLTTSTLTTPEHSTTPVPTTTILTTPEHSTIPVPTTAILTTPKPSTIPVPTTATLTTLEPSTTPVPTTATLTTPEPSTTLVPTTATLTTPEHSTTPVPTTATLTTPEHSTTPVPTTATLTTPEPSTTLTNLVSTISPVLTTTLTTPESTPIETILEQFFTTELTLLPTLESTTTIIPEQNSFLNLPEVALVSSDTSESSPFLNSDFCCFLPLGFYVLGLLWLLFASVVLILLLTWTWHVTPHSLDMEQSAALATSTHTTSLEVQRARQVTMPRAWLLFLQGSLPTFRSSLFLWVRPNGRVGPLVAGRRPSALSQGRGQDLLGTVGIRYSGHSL
Procedure: as §1

platelet deposition relative to same-species control [1]: 25%
binding result [2]: binds
B1: recombinant wild-type murine VWF-A1 domain protein (amino acid residues 1238 to 1471), Example 3 (ligand)
chain: QEPGGLVAPPTDAPVSSTTPYVEDTPEPPLHNFYCSKLLDLVFLLDGSSMLSEAEFEVLKAFVVGMMERLHISQKRIRVAVVEYHDGSRAYLELKARKRPSELRRITSQIKYTGSQVASTSEVLKYTLFQIFGKIDRPEASHITLLLTASQEPPRMARNLVRYVQGLKKKKVIVIPVGIGPHASLKQIRLIEKQAPENKAFLLSGVDELEQRRDEIVSYLCDLAPEAPAPTQPP
notes: Generated in bacteria, with a single disulfide 1272-1458; also called murine rVWF-A1; WT murine VWF-A1 domain protein
